Laboratory results published in US20050255113A1, “Methods and compositions for inhibiting polypeptide accumulation associated with neurological disorders” (New York State Department of Health and Abgenix, Inc., priority 1999, published 2005).

Columns and labels:
[1] = target: T1, biotinylated HD-peptide (HD peptide (1-17), N-terminal huntingtin) (Homo sapiens, UniProt P42858); experiment: Kinetic binding analysis by surface plasmon resonance (BIAcore 2000); conditions: corresponding to the Kd
T1 construct: host or cells: chemical peptide synthesis
Protocol: A range of concentration (60 to 100 nM) of anti-huntingtin intrabody C4 sFv was used to measure the association rate (kon) on 50 RU of biotinylated-HD peptide bound to a streptavidin sensor chip.
The Kd of purified scFv clone C4 was determined by using surface plasmon resonance in a BIAcore 2000 (Biacore AG, Uppsala, Sweden). In a BIAcore flow cell, approximately 50 resonance units (RU) of biotinylated HD-peptide (250 nM in 1M NaCl and 50 mM NaOH) was coupled to a streptavidin sensor chip, pre-conditioned with three consecutive 1-minute injections of 1 M NaCl in 50 mM NaOH. […] Association was measured under a continuous flow of 5 μl/min with a concentration range from 60 to 100 nM, The kon was determined from a plot of In (dR/dt)/t versus concentration, where R is response and t is time (Karlsson et al., J. Immunol. Methods 145: 229-240 (1991)). The koff was determined from the dissociation part of the sensorgram at the highest concentration of intrabody analyzed by using a flow rate of 20 μl/min. The Kd was calculated as koff/kon.
(§1) To characterize the precise binding properties of the intrabody of the invention, further qualitative and quantitative studies of sFv binding to immobilized antigen were conducted in vitro. […] The kinetics of association and dissociation were determined for the C4 sFv antibody in the BIAcore 2000 (FIG. 11B).

[2] = tested on: N-terminal HD sequence (Nt-HD); experiment: ELISA of sFv binding to immobilized GST-fusion proteins / biotinylated Nt-HD peptide; conditions: plates with streptavidin, GST-HD-42Q, GST-HD-65Q, GST-DRPLA-35Q
Protocol: As described in Example 2, four rounds of selection were performed with decreasing concentrations of antigen at each round (100 nM, 50 nM, 10 nM, 1 nM). After the third round, bacterial clones were screened to isolate those which secreted sFv molecules specific to the N-terminal HD sequence. Screening was performed by ELISA. Bacterial supernatants containing secreted sFv were incubated with either 2% bovine serum albumin (BSA), as negative control, or with 2% BSA containing biotinylated antigen (0.1 μg/well, final concentration) in pre-blocked microtiter plates overnight at 4° C. The mixtures were then transferred to streptavidin-coated (0.1 μg/well, final concentration) microtiter plates. […] Bound IgG was detected with alkaline phosphatase conjugated to goat anti-mouse IgG.
Four rounds of selection were performed with decreasing concentrations of antigen at each round (i.e., 100 nM, 50 nM, 10 nM, 1 nM). […] Bound sFv was detected with α-9E10 IgG followed by alkaline phosphatase conjugated goat anti-mouse IgG.
as §1

GST-DRPLA-35Q = target: T2, GST-DRPLA-35Q (Homo sapiens, UniProt P54259, DUP487-502); experiment: Affinity purification of sFv with GST-fusion antigens (glutathione-Sepharose, SDS-PAGE, immunoblot); assay type: binding; conditions: 3 μg sFv with 4 μg antigen, 1 hr room temperature
T2 construct: made in house; host or cells: E. coli BL21
T2 sequence (P54259 with tags, fused parts or gaps DUP487-502): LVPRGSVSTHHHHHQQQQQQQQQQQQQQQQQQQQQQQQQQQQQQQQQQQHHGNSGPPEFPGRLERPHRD
Protocol: (§2) About 3 ug of N-HD-C4 sFv was mixed with 4 ug of either GST-DRPLA-Q35 or GST-HD-Q25 or GST-HD-Q42 in PBS (200 μl final volume) and rocked for 1 h at RT. Twenty microliters of glutathione Sepharose 4B beads (50% slurry, pre-washed with PBS) was added and incubated for another 30 min at RT to capture the sFv/GST fusion protein complexes. The beads were harvested by centrifugation at 12,000×g for 10 sec and washed thrice with 1 ml PBS. The complexes were eluted with 10 μl of 50 mM Tris pH 8.0 containing 10 mM reduced glutathione for 10 min at RT. Tubes were then centrifuged at 12,000×g for 1 min and the supernatants containing the soluble complexes were transferred to new tubes, mixed with an equal volume of 2× SDS-sample buffer and heated at 95° C. before being loaded on SDS-PAGE.
(§3) About 3 μg of each clone were incubated in solution for 1 hour at room temperature with 4 ug of either GST-DRPLA-Q35, GST-HD-Q25 or GST-HD-Q42. Then, a 10 μl bed volume of glutathione-Sepharose 4B (Pharmacia) was added to each tube to precipitate the GST-fusion protein/sFv complexes. After 30 min incubation, tubes were centrifuged and the pellets washed 3 times with 1 ml PBS. The complexes were eluted from glutathione-Sepharose beads by addition of 10 mM reduced glutathione to the pellets.
(§4) After centrifugation, supernatants containing the eluted complexes were transferred to new tubes and mixed with an equal volume of 2× SDS-loading buffer. The samples were boiled and the proteins separated on a 12% SDS-PAGE. Protein bands were visualized by Coomassie blue staining, and/or transferred to nitrocellulose membranes in order to detect the sFv molecules by immunoblot.
(§5) The binding specificities of the selected sFv clones were tested by affinity binding to a full range of antigens, as follows: (a) using sample numbers that correspond to the experimental results in FIGS. 9 and 10, about 3 μg of α-Nt-HD-C4 sFv clone 1 (lanes 2-4) or α-Nt-HD-C4 sFv clone 2 (lanes 5-7) were mixed with 4 μg of the following antigens and incubated in solution for 1 hr at room temperature (lanes 2 and 5) GST-DRPLA-35Q, (lanes 3 and 6) GST-HD-25Q, (4 and 7) GST-HD-42Q; (b) a 10 μl bed volume of glutathione-Sepharose 4B (Pharmacia) was added to each tube to bind all GST-containing protein complexes; the beads were washed with 10 mM glutathione solution, which eluted the GST-antigen or the sFv-antigen complex, and these eluates were analyzed by SDS-PAGE. Protein bands were visualized by Coomassie blue staining (FIG. 9) and were also transferred to nitrocellulose membranes in order to detect the sFv molecules by immunoblot blot (FIG. 10).

GST-HD-25Q, GST-HD-42Q = experiment: as above; assay type: binding; conditions: 3 μg sFv with 4 μg antigen, 1 hr room temperature; Coomassie and immunoblot
Sequence of GST-HD-25Q, GST-HD-42Q (as listed by the source): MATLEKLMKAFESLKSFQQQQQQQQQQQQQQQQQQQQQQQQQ
Protocol: as §2, §3, §4, §5

B1: C4 sFv: human single-chain Fv intrabody from phage display, specific for the 17 N-terminal residues of huntingtin; SEQ ID NO: 6 (protein)
scFv: QVQLQESGGGLVQPGGSLRLSCAASGFTFSSYSMSWVRQAPGKGLEWVAVISYDGSNKYYADSVKGRFTISRDNSKNTLYLQMNSLRAEDTAVYYCARDRYFDLWGRGTLVTVSSGGGGSGGGGSGGGGSQSALTQPASVSGSPGQSITISCTGTSSDIGAYNYVSWYQQYPGKAPKLLIYDVSNRPSGISNRFSGSKSGDTASLTISGLQAEDEADYYCSSFANSGPLFGGGTKVTVL
binding affinity (Ka) [1]: 1.3e+08 M⁻¹ | ELISA binding specificity [2]: binds specifically to the N-terminal HD sequence | ELISA binding specificity ([2]; listed as cc-Nt-HD-C4 sFv): reacted preferentially with antigens containing the Nt-HD flanking peptide sequence | sFv co-purified with GST-DRPLA-Q35 (GST-DRPLA-35Q): not detected | sFv co-purified with antigens containing the Nt-HD sequence (GST-HD-25Q, GST-HD-42Q): present at about the same intensity as the other proteins
